Assay [1] has as its target LT5.J4b12C SOSIP.664 trimeric Env (HIV-1 B/C recombinant, soluble gp140) (HIV-1). Put plainly: negative-stain EM.
A further assay concerns the target His6-tagged sCD4 (D1-D2). In words: BLI.

“LT5.J4b12C SOSIP.664 trimeric Env (HIV-1 B/C recombinant, soluble gp140) (complex)”: the stoichiometry N in assay [1] was determined as 3. In addition, in the assay with His6-tagged sCD4 (D1-D2), the fold lower affinity than BG505 SOSIP.664 is 3 fold.

For the origin of these results see paper PMC5612115.
